From article PMC7954794, “Protein context shapes the specificity of SH3 domain-mediated interactions in vivo” (Nature Communications, 2021)

B1: ABP1: yeast SH3-containing protein; SH3-deleted (D) or gene-deleted (KO) strain (protein, UniProt P15891 2-592, looked up)
Actin-binding protein: ALEPIDYTTHSREIDAEYLKIVRGSDPDTTWLIISPNAKKEYEPESTGSSFHDFLQLFDETKVQYGLARVSPPGSDVEKIIIIGWCPDSAPLKTRASFAANFAAVANNLFKGYHVQVTARDEDDLDENELLMKISNAAGARYSIQTSSKQQGKASTPPVKKSFTPSKSPAPVSKKEPVKTPSPAPAAKISSRVNDNNDDDDWNEPELKERDFDQAPLKPNQSSYKPIGKIDLQKVIAEEKAKEDPRLVQKPTAAGSKIDPSSDIANLKNESKLKRDSEFNSFLGTTKPPSMTESSLKNDDDKVIKGFRNEKSPAQLWAERKAKQNSGNAETKAEAPKPEVPEDEPEGEPDVKDLKSKFEGLAASEKEEEEMENKFAPPPKKSEPTIISPKPFSKPQEPVKAEEAEQPKTDYKKIGNPLPGMHIEADNEEEPEENDDDWDDDEDEAAQPPLPSRNVASGAPVQKEEPEQEEIAPSLPSRNSIPAPKQEEAPEQAPEEEIEEEAEEAAPQLPSRSSAAPPPPPRRATPEKKPKENPWATAEYDYDAAEDNELTFVENDKIINIEFVDDDWWLGELEKDGSKGLFPSNYVSLGN
B2: WT (protein, UniProt P15891 2-592, looked up)
Actin-binding protein: B1 Actin-binding protein

Key:
[1] = tested on: growth of ABP1 SH3-swapped strains in hygromycin B; conditions: cited from earlier work
From the text: Having determined that multiple PPIs require SH3s, we asked whether the latter establish PPI specificity independently from their host proteins by swapping domains (Fig. 2A). Using the second round of genome editing, we individually replaced Abp1 SH3 with the 27 yeast SH3s and 3 human Abp1 orthologs’ SH3s (CTTN, HCLS1, and DBNL, Fig. 2B). The reintroduction of its own SH3 (Abp1SH3 in Abp1) reconstitutes almost perfectly Abp1’s interaction profile (Kendall’s τ = 0.93, Fig. 2B).

Hua2 [2] = test: Low-throughput liquid DHFR-PCA of selected Abp1 SH3 mutants (Fig. S3F); type: cell-based, Saccharomyces cerevisiae; conditions: average
Procedure: Liquid DHFR-PCA low-throughput experiments were performed to validate the PPIs identified as affected by the SH3 domain deletions in the high-throughput solid DHFR-PCA screen (256 PPIs weaker or lost and 116 PPIs stronger or gained following domain deletions). Mating and the diploid selection were performed as described for the large-scale experiment, with the exception that the plates were in 384 formats. Following the second diploid selection, diploid cells were inoculated in a 96 v-shaped well plate using a robotically manipulated 96 pin tool in a synthetic complete medium with MSG at pH 6.0 with NAT and HPH. After 48 h of growth, optical density (OD) was read using a TECAN Infinite F200 Pro, and dilutions to 1 OD in sterile nanopure water were prepared. Cells were then diluted to 0.1 OD by combining 25 µl of cell suspension at OD = 1 and 225 µl of PCA selection media without agar in a 96-wells plate. Plates were incubated at 30 °C in a TECAN Infinite M Nano and OD was monitored each 15 min for 72 h. […]
Selected non-conserved positions (E6 , E13, N15 and N27) sensitivities to mutations for the Abp1-Hua2 PPI were tested in a low -throughput liquid DHFR -PCA assay. The growth of the mutants in the low -throughput experiment (average of four replicates of the total OD for each growth curve, y axis ) is compared to the mutants DMS score (x axis). […]

Hua2 [3] = test: Deep mutational scanning of Abp1 SH3, Abp1-Hua2 DHFR-PCA (DMS score); type: cell-based, Saccharomyces cerevisiae; conditions: Abp1-Hua2 DHFR-PCA; WT = 0; Fig. S3C-D
Outline: (§1)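 Abp1 SH3 variants from NNN codon saturation mutagenesis at all 58 positions were reintegrated genomically in yeast by CRISPR, pooled, and mated with DHFR F[3] prey strains. Diploids underwent two 72 h liquid DHFR-PCA selections at 30 °C, and mutant abundance was read by Illumina sequencing against the pre-selection reference.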

Lsb3 = test: Deep mutational scanning of Abp1 SH3, Abp1-Lsb3 DHFR-PCA (DMS score); type: cell-based, Saccharomyces cerevisiae; conditions: Abp1-Lsb3 DHFR-PCA; WT = 0; Fig. S3C-D
Outline: as §1

Molecule | Hygromycin phenotype, literature [1] | ave_au (DMS validation) (Hua2 [2]) [au] | DMS score Hua2 (Hua2 [3]) | DMS score Lsb3 (Lsb3)
B1 | hygromycin resistance |  |  | 
B2 |  | 93.0274 | 0 | 0
